Target: T1, CD3 epsilon homodimer protein (UniProt P07766 23-126)
T1 construct: Construct of the homodimer is not described; also called CD3 (CD3 epsilon)
Assay: SPR Biacore T200, CD3e homodimer on chip, antibody analyte;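 further: CD3 epsilon homodimer amine-coupled on CM4 sensor chip, antibodies injected as analyte at 25 °C in HBS-EP+, ratio ≥0.8 taken as binding retained versus unaltered parent antibody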

T1 sequence (P07766 23-126): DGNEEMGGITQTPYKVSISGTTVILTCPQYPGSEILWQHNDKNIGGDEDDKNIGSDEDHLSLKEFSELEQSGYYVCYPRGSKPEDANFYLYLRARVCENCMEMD

Binder | ratio of amounts bound (altered form/GLS3000)
GLS3000 V94N one-arm antibody (antibody, human IgG1, kappa, L234A L235A, N297A, name in Kabat numbering) light: DIVMTQSPLSLPVTPGEPASISCRSSQSLVHSNRNTYLHWYQQKPGQAPRLLIYKVSNRFSGVPDRFSGSGSGTDFTLKISRVEAEDVGVYYCGQGTQNPYTFGQGTKLEIKRTVAAPSVFIFPPSDEQLKSGTASVVCLLNNFYPREAKVQWKVDNALQSGNSQESVTEQDSKDSTYSLSSTLTLSKADYEKHKVYACEVTHQGLSSPVTKSFNRGEC heavy: QVQLVESGGGVVQPGRSLRLSCAASGFTFSNAWMHWVRQAPGKGLEWVAQIKAKSNNYATYYAESVKGRFTISRDDSKNSLYLQMNSLKTEDTAVYYCRYVHYGAYYGVDAWGQGTTVTVSSASTKGPSVFPLAPSSKSTSGGTAALGCLVKDYFPEPVTVSWNSGALTSGVHTFPAVLQSSGLYSLSSVVTVPSSSLGTQTYICNVNHKPSNTKVDKKVEPKSCDKTHTCPPCPAPEAAGGPSVFLFPPKPKDTLMISRTPEVTCVVVDVSHEDPEVKFNWYVDGVEVHNAKTKPREEQYASTYRVVSVLTVLHQDWLNGKEYKCKVSNKALPAPIEKTISKAKGQPREPQVYTLPPSRCELTKNQVSLSCAVKGFYPSDIAVEWESNGQPENNYKTTPPVLDSDGSFFLVSKLTVDKSRWQQGNVFSCSVMHEALHNHYTQKSLSLSPDYKDDDDK EPKSSDKTHTCPPCPAPELLGGPSVFLFPPKPKDTLMISRTPEVTCVVVDVSHEDPEVKFNWYVDGVEVHNAKTKPREEQYNSTYRVVSVLTVLHQDWLNGKEYKCKVSNKALPAPIEKTISKAKGQPREPQVCTLPPSRDELTKNQVSLWCLVKGFYPSDIAVEWESNGQPENNYKTTPPVLDSDGSFFLYSKLTVDKSRWQQGNVFSCSVMHEALHNRYTQKSLSLSP | 1.05
GLS3000 V94S one-arm antibody (antibody, human IgG1, kappa, L234A L235A, N297A, name in Kabat numbering) light: DIVMTQSPLSLPVTPGEPASISCRSSQSLVHSNRNTYLHWYQQKPGQAPRLLIYKVSNRFSGVPDRFSGSGSGTDFTLKISRVEAEDVGVYYCGQGTQSPYTFGQGTKLEIKRTVAAPSVFIFPPSDEQLKSGTASVVCLLNNFYPREAKVQWKVDNALQSGNSQESVTEQDSKDSTYSLSSTLTLSKADYEKHKVYACEVTHQGLSSPVTKSFNRGEC heavy: QVQLVESGGGVVQPGRSLRLSCAASGFTFSNAWMHWVRQAPGKGLEWVAQIKAKSNNYATYYAESVKGRFTISRDDSKNSLYLQMNSLKTEDTAVYYCRYVHYGAYYGVDAWGQGTTVTVSSASTKGPSVFPLAPSSKSTSGGTAALGCLVKDYFPEPVTVSWNSGALTSGVHTFPAVLQSSGLYSLSSVVTVPSSSLGTQTYICNVNHKPSNTKVDKKVEPKSCDKTHTCPPCPAPEAAGGPSVFLFPPKPKDTLMISRTPEVTCVVVDVSHEDPEVKFNWYVDGVEVHNAKTKPREEQYASTYRVVSVLTVLHQDWLNGKEYKCKVSNKALPAPIEKTISKAKGQPREPQVYTLPPSRCELTKNQVSLSCAVKGFYPSDIAVEWESNGQPENNYKTTPPVLDSDGSFFLVSKLTVDKSRWQQGNVFSCSVMHEALHNHYTQKSLSLSPDYKDDDDK EPKSSDKTHTCPPCPAPELLGGPSVFLFPPKPKDTLMISRTPEVTCVVVDVSHEDPEVKFNWYVDGVEVHNAKTKPREEQYNSTYRVVSVLTVLHQDWLNGKEYKCKVSNKALPAPIEKTISKAKGQPREPQVCTLPPSRDELTKNQVSLWCLVKGFYPSDIAVEWESNGQPENNYKTTPPVLDSDGSFFLYSKLTVDKSRWQQGNVFSCSVMHEALHNRYTQKSLSLSP | 0.93
GLS3000 V94T one-arm antibody (antibody, human IgG1, kappa, L234A L235A, N297A, name in Kabat numbering) light: DIVMTQSPLSLPVTPGEPASISCRSSQSLVHSNRNTYLHWYQQKPGQAPRLLIYKVSNRFSGVPDRFSGSGSGTDFTLKISRVEAEDVGVYYCGQGTQTPYTFGQGTKLEIKRTVAAPSVFIFPPSDEQLKSGTASVVCLLNNFYPREAKVQWKVDNALQSGNSQESVTEQDSKDSTYSLSSTLTLSKADYEKHKVYACEVTHQGLSSPVTKSFNRGEC heavy: QVQLVESGGGVVQPGRSLRLSCAASGFTFSNAWMHWVRQAPGKGLEWVAQIKAKSNNYATYYAESVKGRFTISRDDSKNSLYLQMNSLKTEDTAVYYCRYVHYGAYYGVDAWGQGTTVTVSSASTKGPSVFPLAPSSKSTSGGTAALGCLVKDYFPEPVTVSWNSGALTSGVHTFPAVLQSSGLYSLSSVVTVPSSSLGTQTYICNVNHKPSNTKVDKKVEPKSCDKTHTCPPCPAPEAAGGPSVFLFPPKPKDTLMISRTPEVTCVVVDVSHEDPEVKFNWYVDGVEVHNAKTKPREEQYASTYRVVSVLTVLHQDWLNGKEYKCKVSNKALPAPIEKTISKAKGQPREPQVYTLPPSRCELTKNQVSLSCAVKGFYPSDIAVEWESNGQPENNYKTTPPVLDSDGSFFLVSKLTVDKSRWQQGNVFSCSVMHEALHNHYTQKSLSLSPDYKDDDDK EPKSSDKTHTCPPCPAPELLGGPSVFLFPPKPKDTLMISRTPEVTCVVVDVSHEDPEVKFNWYVDGVEVHNAKTKPREEQYNSTYRVVSVLTVLHQDWLNGKEYKCKVSNKALPAPIEKTISKAKGQPREPQVCTLPPSRDELTKNQVSLWCLVKGFYPSDIAVEWESNGQPENNYKTTPPVLDSDGSFFLYSKLTVDKSRWQQGNVFSCSVMHEALHNRYTQKSLSLSP | 0.93
GLS3000 V94Q one-arm antibody (antibody, human IgG1, kappa, L234A L235A, N297A, name in Kabat numbering) light: DIVMTQSPLSLPVTPGEPASISCRSSQSLVHSNRNTYLHWYQQKPGQAPRLLIYKVSNRFSGVPDRFSGSGSGTDFTLKISRVEAEDVGVYYCGQGTQQPYTFGQGTKLEIKRTVAAPSVFIFPPSDEQLKSGTASVVCLLNNFYPREAKVQWKVDNALQSGNSQESVTEQDSKDSTYSLSSTLTLSKADYEKHKVYACEVTHQGLSSPVTKSFNRGEC heavy: QVQLVESGGGVVQPGRSLRLSCAASGFTFSNAWMHWVRQAPGKGLEWVAQIKAKSNNYATYYAESVKGRFTISRDDSKNSLYLQMNSLKTEDTAVYYCRYVHYGAYYGVDAWGQGTTVTVSSASTKGPSVFPLAPSSKSTSGGTAALGCLVKDYFPEPVTVSWNSGALTSGVHTFPAVLQSSGLYSLSSVVTVPSSSLGTQTYICNVNHKPSNTKVDKKVEPKSCDKTHTCPPCPAPEAAGGPSVFLFPPKPKDTLMISRTPEVTCVVVDVSHEDPEVKFNWYVDGVEVHNAKTKPREEQYASTYRVVSVLTVLHQDWLNGKEYKCKVSNKALPAPIEKTISKAKGQPREPQVYTLPPSRCELTKNQVSLSCAVKGFYPSDIAVEWESNGQPENNYKTTPPVLDSDGSFFLVSKLTVDKSRWQQGNVFSCSVMHEALHNHYTQKSLSLSPDYKDDDDK EPKSSDKTHTCPPCPAPELLGGPSVFLFPPKPKDTLMISRTPEVTCVVVDVSHEDPEVKFNWYVDGVEVHNAKTKPREEQYNSTYRVVSVLTVLHQDWLNGKEYKCKVSNKALPAPIEKTISKAKGQPREPQVCTLPPSRDELTKNQVSLWCLVKGFYPSDIAVEWESNGQPENNYKTTPPVLDSDGSFFLYSKLTVDKSRWQQGNVFSCSVMHEALHNRYTQKSLSLSP | 0.76
GLS3000 V94R one-arm antibody (antibody, human IgG1, kappa, L234A L235A, N297A, name in Kabat numbering) light: DIVMTQSPLSLPVTPGEPASISCRSSQSLVHSNRNTYLHWYQQKPGQAPRLLIYKVSNRFSGVPDRFSGSGSGTDFTLKISRVEAEDVGVYYCGQGTQRPYTFGQGTKLEIKRTVAAPSVFIFPPSDEQLKSGTASVVCLLNNFYPREAKVQWKVDNALQSGNSQESVTEQDSKDSTYSLSSTLTLSKADYEKHKVYACEVTHQGLSSPVTKSFNRGEC heavy: QVQLVESGGGVVQPGRSLRLSCAASGFTFSNAWMHWVRQAPGKGLEWVAQIKAKSNNYATYYAESVKGRFTISRDDSKNSLYLQMNSLKTEDTAVYYCRYVHYGAYYGVDAWGQGTTVTVSSASTKGPSVFPLAPSSKSTSGGTAALGCLVKDYFPEPVTVSWNSGALTSGVHTFPAVLQSSGLYSLSSVVTVPSSSLGTQTYICNVNHKPSNTKVDKKVEPKSCDKTHTCPPCPAPEAAGGPSVFLFPPKPKDTLMISRTPEVTCVVVDVSHEDPEVKFNWYVDGVEVHNAKTKPREEQYASTYRVVSVLTVLHQDWLNGKEYKCKVSNKALPAPIEKTISKAKGQPREPQVYTLPPSRCELTKNQVSLSCAVKGFYPSDIAVEWESNGQPENNYKTTPPVLDSDGSFFLVSKLTVDKSRWQQGNVFSCSVMHEALHNHYTQKSLSLSPDYKDDDDK EPKSSDKTHTCPPCPAPELLGGPSVFLFPPKPKDTLMISRTPEVTCVVVDVSHEDPEVKFNWYVDGVEVHNAKTKPREEQYNSTYRVVSVLTVLHQDWLNGKEYKCKVSNKALPAPIEKTISKAKGQPREPQVCTLPPSRDELTKNQVSLWCLVKGFYPSDIAVEWESNGQPENNYKTTPPVLDSDGSFFLYSKLTVDKSRWQQGNVFSCSVMHEALHNRYTQKSLSLSP | 0.66
GLS3000 V94P one-arm antibody (antibody, human IgG1, kappa, L234A L235A, N297A, name in Kabat numbering) light: DIVMTQSPLSLPVTPGEPASISCRSSQSLVHSNRNTYLHWYQQKPGQAPRLLIYKVSNRFSGVPDRFSGSGSGTDFTLKISRVEAEDVGVYYCGQGTQPPYTFGQGTKLEIKRTVAAPSVFIFPPSDEQLKSGTASVVCLLNNFYPREAKVQWKVDNALQSGNSQESVTEQDSKDSTYSLSSTLTLSKADYEKHKVYACEVTHQGLSSPVTKSFNRGEC heavy: QVQLVESGGGVVQPGRSLRLSCAASGFTFSNAWMHWVRQAPGKGLEWVAQIKAKSNNYATYYAESVKGRFTISRDDSKNSLYLQMNSLKTEDTAVYYCRYVHYGAYYGVDAWGQGTTVTVSSASTKGPSVFPLAPSSKSTSGGTAALGCLVKDYFPEPVTVSWNSGALTSGVHTFPAVLQSSGLYSLSSVVTVPSSSLGTQTYICNVNHKPSNTKVDKKVEPKSCDKTHTCPPCPAPEAAGGPSVFLFPPKPKDTLMISRTPEVTCVVVDVSHEDPEVKFNWYVDGVEVHNAKTKPREEQYASTYRVVSVLTVLHQDWLNGKEYKCKVSNKALPAPIEKTISKAKGQPREPQVYTLPPSRCELTKNQVSLSCAVKGFYPSDIAVEWESNGQPENNYKTTPPVLDSDGSFFLVSKLTVDKSRWQQGNVFSCSVMHEALHNHYTQKSLSLSPDYKDDDDK EPKSSDKTHTCPPCPAPELLGGPSVFLFPPKPKDTLMISRTPEVTCVVVDVSHEDPEVKFNWYVDGVEVHNAKTKPREEQYNSTYRVVSVLTVLHQDWLNGKEYKCKVSNKALPAPIEKTISKAKGQPREPQVCTLPPSRDELTKNQVSLWCLVKGFYPSDIAVEWESNGQPENNYKTTPPVLDSDGSFFLYSKLTVDKSRWQQGNVFSCSVMHEALHNRYTQKSLSLSP | 1.26
